From US20250066490A1 (PROFOUNDBIO US, published 2025)

What was measured:
[1] = biological target: T1, human CD70 expressed on the cell surface of tumor cell lines (human, UniProt P32970 1-193); test: flow cytometry on 786-O cells
T1 construct: whole, on cells
T1 sequence (looked up): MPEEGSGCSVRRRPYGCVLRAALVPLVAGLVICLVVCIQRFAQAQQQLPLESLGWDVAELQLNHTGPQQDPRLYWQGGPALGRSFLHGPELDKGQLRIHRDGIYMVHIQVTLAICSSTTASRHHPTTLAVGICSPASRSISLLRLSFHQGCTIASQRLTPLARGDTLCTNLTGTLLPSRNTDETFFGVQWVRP
Protocol: (§1) The lead antibodies were tested for binding to renal carcinoma cells and glioblastoma cells expressing CD70 on the cell surface by flow cytometry. […] U251 cells were cultured with MEM medium containing of 10% FBS and 1% NEAA+1 mM sodium pyruvate. DBTRG-05MG cells were cultured with DMEM medium (Gibco, Cat #C11995500BT) containing of 10% FBS. Each of the lead antibodies and the controls were incubated for 30 mins with the different cell lines (3×10⁵ cells per well) in 0.2 ml FACS buffer (1×PBS with 0.1% BSA) at 4° C. Then, the cells were pelleted, washed, and incubated at 4° C. for 30 mins with 100 μl of 1:200 diluted PE-conjugated anti human Fc (Abcam, Ab98596) in FACS buffer. The cells were pelleted again, washed with PBS, resuspended in FACS buffer and analyzed by flow cytometer (Beckman, CytoFLEX).
(§2) Antibodies 2H8 and 2D2 had slightly higher binding ability to the cell lines than that of antibody 69A7.

[2] = biological target: T2, CD70 ECD (antigen immobilized on the CM5 chip) (UniProt P32970 39-193); test: SPR (Biacore T200), CD70 ECD on CM5 chip; upper end tied to 2A4P0L1 by the KD values of Table 8
T2 construct: extracellular domain; also called CD70 antigen
T2 sequence (looked up): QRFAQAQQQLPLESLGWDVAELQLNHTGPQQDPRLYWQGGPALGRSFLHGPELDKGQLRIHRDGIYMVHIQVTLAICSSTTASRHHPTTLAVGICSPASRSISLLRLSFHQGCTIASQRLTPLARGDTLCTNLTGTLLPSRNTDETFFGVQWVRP
Protocol: (§3) The immobilization of antigen CD70 ECD was performed at 25° C. with HBS-EP as the running buffer. Sensor chip surface of flow cells 1, 4 were activated by freshly mixed 50 mmol/L N-Hydroxy succinimide (NHS) and 200 mmol/L 1-ethyl-3-(3-dimethylaminopropyl) carbodiimide hydrochloride (EDC) for 420s (10 μL/min). Afterwards, CD70 antigen diluted in 10 mmol/L NaAC (pH 4.5) was injected into flow cell 4 to achieve conjugation of the appropriate Response Unit, while flow cell 1 was set as a blank. After the amine coupling reaction, the remaining active coupling sites on chip surface were blocked by 420s injection of 1 mol/L ethanolamine hydrochloride.
(§4) The assay was performed at 25° C. and the running buffer was HBS-EP. Diluted antibodies were injected over the surface of flow cells 1 and 4 during the association phase, followed by injecting running buffer as the dissociation phase. All the data were processed using Biacore T200 Evaluation software version 3.1. Flow cell 1 and a blank injection of buffer in each cycle were used as a double reference for Response Units subtraction. Kinetic data of the interaction between the antibodies and CD70 antigen were obtained through affinity measurement.

[3] = biological target: T1, human CD70 expressed on the cell …; test: flow cytometry on DBTRG-05MG cells, PE anti-human Fc, MFI; same fit as Table 6, which prints it in nM
Protocol: as §1, §2

[4] = biological target: T1, human CD70 expressed on the cell …; test: flow cytometry on U251 cells
Protocol: as §1, §2

[5] = biological target: T1, human CD70 expressed on the cell …; test: flow cytometry on 786-O cells, PE anti-human Fc, MFI; same fit as Table 6, which prints it in nM
Protocol: as §1, §2

[6] = biological target: T3, cynomolgus CD70 recombinant protein (cynomolgus, UniProt A0A2K5WTU9 39-190); test: ELISA, IgG titrated on coated cynomolgus CD70 recombinant protein (2 µg/ml), anti-human Fc-HRP, OD450
T3 construct: also called cyno-antigen; cynomolgus CD70 protein
T3 sequence: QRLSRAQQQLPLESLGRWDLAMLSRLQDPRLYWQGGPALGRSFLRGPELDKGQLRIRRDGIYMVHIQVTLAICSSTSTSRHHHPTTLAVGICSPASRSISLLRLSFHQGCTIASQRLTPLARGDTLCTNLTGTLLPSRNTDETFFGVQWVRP
Protocol: (§5) The binding specificity of the CD70 antibodies was tested by ELISA according to a standard protocol. Briefly, 96-well micro-plates were coated with 2 μg/ml of human or cynomolgus CD70 recombinant protein in PBS at 100 μl per well and incubated overnight at 4° C. The plates were washed twice with TBS+0.5% Tween20. 200 μL of blocking buffer (2% BSA in PBS) was added to each well, and the plates were incubated at 37° C. for 2 hours. The plates were washed using the wash buffer mentioned above. Serially diluted antibodies were added to the ELISA plates using 100 μl per well, and the plates were incubated for 1 hour at room temperature. Then plates were washed 3 times. HRP conjugated anti-human Fc antibody solution (Sigma, I18885-2ML, diluted with blocking buffer) was added to the plates using 100 μl per well. The plates were incubated at room temperature for 1 hour and then washed 3 times. Then the TMB solution was added to plates using 100 μl per well and the plates were placed at RT for 5-15 mins. Then the stop solution (2M H2SO4) was added using 50 μl per well. The absorbance was measured at A450 and A630.

[7] = biological target: T4, human CD70 recombinant protein (human, UniProt P32970 39-193, limits assumed); test: ELISA, IgG titrated on coated human CD70 recombinant protein (2 µg/ml), anti-human Fc-HRP, OD450
T4 construct: May be the same reagent as ACRO CDL-H5246; also called CD70 protein
T4 sequence (looked up): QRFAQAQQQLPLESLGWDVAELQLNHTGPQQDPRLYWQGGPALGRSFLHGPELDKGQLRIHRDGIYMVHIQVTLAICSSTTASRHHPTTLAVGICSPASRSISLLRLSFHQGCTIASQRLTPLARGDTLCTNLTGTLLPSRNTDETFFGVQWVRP
Protocol: as §5

[8] = biological target: T1, human CD70 expressed on the cell …; test: flow cytometry on DBTRG-05MG cells
Protocol: as §1, §2

[9] = biological target: T1, human CD70 expressed on the cell …; test: cell-based or functional assay
[10] = biological target: T2, CD70 ECD (antigen immobilized on the …); test: SPR (Biacore T200), CD70 ECD on CM5 chip, IgG as analyte
Protocol: as §3, §4

[11] = biological target: T1, human CD70 expressed on the cell …; test: flow cytometry on Caki-1 cells, PE anti-human Fc, MFI; same fit as Table 6, which prints it in nM
Protocol: as §1, §2

[12] = biological target: T1, human CD70 expressed on the cell …; test: flow cytometry on U251 cells, PE anti-human Fc, MFI; same fit as Table 6, which prints it in nM
Protocol: as §1, §2

[13] = biological target: T1, human CD70 expressed on the cell …; test: flow cytometry on Caki-1 cells
Protocol: as §1, §2

EC50 [1]: 2.98 nM | fold improved affinity against parent antibody 69A7 [2]: 3 to 8 fold | EC50 [3]: 0.876 µg/mL | EC50 [4]: 4.72 nM | EC50 [5]: 0.447 µg/mL | EC50 [6]: 0.00335 µg/mL | EC50 [7]: 0.263 µg/mL | EC50 [8]: 5.84 nM | Internalization rate (%) on 786-O [9]: 61% | Internalization rate (%) on Caki-1 [9]: 22% | Kd [10]: 38.6 nM | koff [10]: 0.00197 s⁻¹ | kon [10]: 51000 M⁻¹ s⁻¹ | EC50 [11]: 0.816 µg/mL | EC50 [12]: 0.708 µg/mL | EC50 [13]: 5.44 nM
B1: 2A4P0L1, full IgG (antibody, V domains shown)
VH: QVQLQESGPGLVKPSETLSLTCTVSGGSVSSDYYYWSWIRQPPGKGLEWLGYIYYSGSTNYNPSLKSRVTISVDTSKNQFSLKLRSVTTADTAVYYCARGDGDYGGNVFPYWGQGTLVTVSS
VL: EIVLTQSPATLSLSPGERATLSCRASQSVSSYLAWYQQKPGQAPRLLIFDASNRATGIPARFSGSGSGTDFTLTISSLEPEDFAVYYCQQRLKFPLTFGGGTKVEIK
